Test results as given in the DeepSol protein solubility set.

assay: soluble on expression in E. coli; label from the status in PepcDB or PDB records

**Q.** Which “soluble on expression in E. coli” value does the source give for “MGSDKIHHHHHHMAKIDFRNKINWRRRFRSPPRVETERDILRIFESDRGRIVNSPAIRRLQQKTQVFPLERNAAVRTRLTHSLEVQQVGRYIAKEVLSRLKELRLLEEYGLEELTGPFESVVEMACLMHDIGNPPFGHFGEAAINDWFRQRLAPGDALGQPLTDDRCEVQALRLHDGETSLNALRRKVRQDLCSFEGNAQGIRLVHTLMRMNLTWAQVGCILKYTRPAWWSEETPASHSYLMKKPGYYLAEEEYVARLRKELDLAPYNRFPLTWIMEAADDISYCVADLEDAVEKRIFSAEQLYQHLYDAWGSHEKGSLFSQVVENAWEKSRANYLKQSAEDQFFMYLRVNTLNKLVPYAARRFIDNLPAIFTGDFNHALLEDDSDCSQLLELYKNVAMKQVFSHPDVEQLELQGYRVISGLLDIYQPLLKLSLEDFSELVAQERVRRLPIASRLYQKLSTRHRLAYVEAVNKLARTAPEFALMEYYYRCRLIQDYISGMTDLYAWDEYRRLMAVE” here?
**A.** not soluble

**Q.** With “MGSDKIHHHHHHMAKIESNDSHLRGILKDELYYQIPIYQRPYQWTEENCEKLLDDLFFNYEDDREGDYFCGSLVLIAISKDSKATTYDVVDGQQRLSTFILLAKVLADLYNDCLDPKNLEHLQEGWKDRHTERKRLSFNTIGSNAEYDFQDALEHFNDSQASKNKNNKNNYLKNAICLKDYLMKKEIKNINDFIEWLYSNVKFITIICPNIDKALRIFNVLNARGLPLNATDIFKGELLKHAKEHEREEFVSRWNALSQKCSDNDLTMETLFSWYNLSQSGNF” as the sequence, how does the “soluble on expression in E. coli” value read?
**A.** not soluble

**Q.** For “MGSDKIHHHHHHMAKLCHKPLHILFFRHSLLGRGGDKMVVCQANALARRGHQVTIRTATLATPFSLDDRIEINLTGSSSVAATLMDLFKGRFSFDLLIVDIIPLAVLAGIRFGRTKVIYYVQDWDVSYYRSLAFRSLIRLLYFVERSFLRIPVIVVSEHLLGKIGRTGIGATYVVENGIDLTLFNSKGRLHPAFAPGHIPTFLLFIRNDWRKGSDLALKVVKKLADRYPHAFGVVAVGNRPAIRPSQIDWIDKGFMDERQIADLMKQCDLFLYPSRHEGFGLMALEAFACGCLVVTTTAVGFAHDIENSLVAEVDDEQGLYSRLCCLLEKQIEIAPLVKKAEEFASEHPLELCMDRFCSVIEELNQ”, which “soluble on expression in E. coli” value is on record?
**A.** not soluble

**Q.** For “MGSDKIHHHHHHMAKQLPDIGDYKYGFKDKDVSIFRAGRGLTKEIVEEISRMKEEPQWMLDFRLKSLDKFYEMPMPQWGGDLNDLDFDEITYYVKPSEKSEKSWDEVPDEIKATFDKLGIPEAEQKYLAGVSAQYESEVVYHNMKEDLEALGIVFKDTDSALKENEDIFREHFGKVIPPTDNKFAALNSAVWSGGSFIYVPKGVKVDTPLQAYFRINSENMGQFERTLIIVDEGAHVHYVEGCTAPVYTTNSLHSAVVEIIIKKDAYCRYTTIQNWANNVYNLVTKRAVCEENATMEWIDGNIGSKLTMKYPAVILKGEGARGLTLSIAIAGKGQHQDAGAKMIHLAPNTSSTIVSKSIAKHGGKVTYRGIVHFGPKAKNSRSNIECDTLIMDNQSTSDTIPYNEIKNDYVSLEHEAKVSKVSEEQLFYLMSRGISEQEATEMIVMGFIEPFTRELPMEYAVEMNRLIKFEMEGSIG”, which “soluble on expression in E. coli” value is on record?
**A.** not soluble

**Q.** Which “soluble on expression in E. coli” value does the source give for “MGSDKIHHHHHHMALIEVQNLKKYFPVKQGPIDVLLRKPRKFVKAVDGVNFQIDEGKSLGLVGESGSGKTTTGRVILRLEEPTDGKIIFDGRDITKLSKEEMRKLRKEMQIIFQDPMASLNPYMRVGKAIEHALEIHGIGDRSSRKEMVLEMLRRVNLEPAEDIYRRYPRELSGGQRQRVVIARALILKPRLVVADEAVAMLDVSVRSQLLRLLQELRKEFNLTMLFITHDLATTKYVCDEIAVMYLGKIVEIGDFEDIYLNPKHPYTQALISAVPEPSLKKKKKFIPEGETPNPIDVPSGCRFHPRCPYRMDICMKEEPQLKAVEENHKVACHLYN” here?
**A.** not soluble

**Q.** Which “soluble on expression in E. coli” value does the source give for “MGSDKIHHHHHHMALNKPKIVILGAGYGGLMTVTRLTKYVGPNDADITLVNKHNYHYETTWMHEASAGTLHHDRCRYQIKDVINQSRVNFVQDTVKAIKIDEKKVVLANGELQYDYLVIGLGAVPETFGIKGLKEYAFPIANINTSRLLREHIELQFATYNTEAEKRPDRLTIVVGGAGFTGIEFLGELAARVPELCKEYDVDRSLVRIICVEAAPTVLPGFDPELVDYAVHYLEENGVEFKIGTAVQECTPEGVRVGKKDEEPEQIKSQTVVWAAGVRGHPIVEEAGFENMRGRVKVNPDLRAPGHDNVFILGDSSLFMNEDTERPYPPTAQIAMQQGITVAKNLGRLIKGGELEEFKPDIKGTVASLGEHNAVGVVYGRKLKGTPASFMKKVIDNRSLFMIGGLGLTLKKGKFKFF” here?
**A.** not soluble

**Q.** With “MGSDKIHHHHHHMANRLNQLLKQWLSQKDTQKWVLATIIETDGSSYRKAGAMMMINDLGQYFGLLSGGCLESDIMLQARRCWDSGRNRIVEYDMREEEDLAWKLGIGCGGMVRILLQPVDEANQYLQLDSLYALLESNQTAEYCQVINDQVPLNTLKTLTLKQAAPEQAKSIEGALKKADTDRKTETQQGVFKQYLKPAPHLAVFGGGVDARPVVAIATQLGWQVTLVDPRTSYARNGHFDNSVSVVRDAIESLEQNRWLQQIDMAIIMTHNIKLDAQSLALVQKSSAKYVGMLGPIHRTDRVLDLIPTTREQLVKPLANPVGLRLGGELPESIALSMLSEAHAFIEQQNGLSISGILRQ” as the sequence, how does the “soluble on expression in E. coli” value read?
**A.** not soluble

**Q.** For “MGSDKIHHHHHHMANSRKHLIYLVYGRQTYHQEALFSIASAFAHLRDGAAHGLTVRVYTDDPSPYAGLPVQVREVTAEELVAWCQPHGYHFRAKHVALRDALEEADQALLIDTDTFFHSSPLRLFDRIQPGSLLCNAIGARYGEHRNFPLYRDLSPYLFERGWADDEMHQLNSGVIGLPREEAKILDRSLELMDELYPIANGAYTLEEFVLAVAAHKRLELVGCTDLIHHYWSRKQLFRAKIQAWLCKHGSSLLSAAALDDTLKVTDRLPRPPRAKRLLYKLGTLPLPAPMRQFSIELLYGCHEYSNEFDRACGPVWWEKAATNAIERYPQEPIAEQIEDWLNHSLLRNLLGSRANEIRQHLRQRDLL”, which “soluble on expression in E. coli” value is on record?
**A.** not soluble

**Q.** Which “soluble on expression in E. coli” value does the source give for “MGSDKIHHHHHHMAPASFSQITGQSVGKIGVLFLLLMVLWSANLCNSSDITPLSANRANVGQMVQAFTFDDLFKEDGPSSDLPQRVFRQTSSWRGFSQLEFAETIASPKHASKLRLRSELSNLGQLSPNVKWKLSARIDYDAIYDLSDFYSRQVRRDQRFELFLRENYLDFSIADFDVRVGRQHIVWGEMVGLFFADVVSAKDMREFVLPDFDILRIPQWAVRTEYSKNDFHADLIWIPFASLDEIGRPGADFYPFKLPVAAPVSFLKEDRSGRNVAHSNYGIRLSQLTNGWDVSAFYYHSLDATPTFHRISQPWEPLLFQARHGEIDQAGGTVTKDLGSAVLKGEFVYTHGRRFNVTRPTAADGLVRQDTIDYALGLDFTLPSDIRLNLQFFQRAYLNYDRDIFQDRLENGGSIFLQGDLWRDFQGQILLIHSFNRNEWMLRPRLTWNFARNWKLAAGADIFNGPPTGLFGRFDSSDRVYTELRFSF” here?
**A.** not soluble

**Q.** For “MGSDKIHHHHHHMAPMKIGLILEGTYPYVTGGVSNWVHTLLTNLPEFEFEIYHLKAVTEPQTIKYKIPENVTAVHELNIFGDFESDSSQKANLESLERIVSQLSIERDIRSIVSFAIDFIRENAGKNVRKMLKTKGFWNILLKIYEEFFSERGLTEFYWMIMNLFLPVVNVLQFVPNRCDLFHVPSTGYASLVGMNGKFVHDVPLVITEHGIYHKEREREIILSTWVPDAYKPMWIELFRIISMIAYRVSDALTTLYRKNQIYQLELGADPEKMFIIPNGINVEEYDLPPEKHEGFVVGFVGRVARIKDLKTAIRAISIVKEVVGEKLTFLIIGPVDAEDYLAECKRLVRVLRLEDTVEFLGPQNVKEYYPKFDLLLLSSVSEGQPLVILEAMAAGVPIVATDVGACRDIIYDKDGQCGIVVPPKDHLSMSKAIIKLYEDKELRDTFSKNAKKVVQKYRVETMIEKYRNLYLSLTSKKTVSTV”, which “soluble on expression in E. coli” value is on record?
**A.** not soluble

**Q.** Which “soluble on expression in E. coli” value does the source give for “MGSDKIHHHHHHMAQYSAEFKQAKVLVLGDVMLDRYWFGATNRISPEAPVPVVRVQENEERAGGAANVAMNIASLNVPVQLMGLIGQDETGSALSLLLEKQKIDCNFVALETHPTITKLRILSRHQQLLRLDFEEDFNNVDCKDLLAKLESAVKNYGALILSDYGKGTLKDVQKMIQIARKANVPVLIDPKGTDFERYRGATLLTPNMSEFEAVVGKCNTEEEIIEKGLKLISDIELTALLVTRSEKGMTLLRPNQEPYHLPTVAKEVFDVTGAGDTVISVLATALADGRSFEESCYLANVAAGIVVGKLGTSTVSTVELENAIHARPETGFGIMSEAELKDAVAQAKARGEKIVMTNGCFDILHPGHISYLENARKLGDRLIVAVNSDDSVKRLKGESRPINNLENRMAVLAGLASVDWLVPFTEDTPQRLIGEILPDLLVKGGDYKPEEIAGSKEVWANGGDVKVLNFENGCSTTNVIEKIKLLKD” here?
**A.** not soluble

**Q.** Which “soluble on expression in E. coli” value does the source give for “MGSDKIHHHHHHMARIARVIATGIPHHVTQRGNRRMPTFFNDEDYRAYIALLGEWCRKCGVDIWAYCLMPNHVHLIAVPETDDGLRRGIGEAHRRYSRMINFRENWRGHLWQGRFASFPMDESYLLAAARYVEMNPVRARLTPKAALWPWSSARAHLDRMDDELVKVAPLLELVGDWSLFLAGTGEEDQLNDIRKHERTGRPLGTEEFVERLESALERPLKKGKPGPKGNDN” here?
**A.** not soluble

**Q.** With “MGSDKIHHHHHHMARTTDRQRNTRSPRQARRQLNKLLRDPIVKPHNAAAVRIRLDEMMAILQHREYRPEQPSSTNQVNTHGQVQFDLARWYPEGGRLRYTLRPRGALLPIAFTVQDFGNHRKSLTRGLALAVAGAAHQLDQMKAANKLPLIMQPFSDWVHLLAIGLQNWLENGQVVFSLADLNGAYVLTSMPTAPATWLARLFGISLGNPDQSLTDLRRQRQEQADRLTTRLAAKFAIEEAPLVQAANDRAAKSIQLDAATMATLASDQAPLRSQKDVVDRLARGDYIVIDTEFVADRNQLDLTEISLLRVRHHQVDGAFDIFTQLPEDHHVMPFSVKITGITDDLLSQYGQPLPLAKAAVEQLLKHELVVGFALSNDLRALRAGLNVDITPVQAFDVAALARKTFGIGKKHTPSLQHYKEALGVDLPSHTALSDAQTTMALLEHLIWEGSPLITKDIGFEQRPPEHANDPEPYQKPDPSTS” as the sequence, how does the “soluble on expression in E. coli” value read?
**A.** not soluble

**Q.** For “MGSDKIHHHHHHMASPINESRIGYLYEAVRCGTVRAAADYLDVAPSAVSRQIALLEEELAIALVERNKRGVRPTEAGALLIEYFRQQRSHQGDLIAKLQEIRGLRRGTIAVVMGEGFASTMVSGPIKQYCEAYPEISITLDLCSTNEVMRRVSEDEAEIGLVFNPASDARIVSRVGSRQPMHAIVSPAFPLVGKVQSVTLRDMLPYPLALTHPEHGTRRLVDAAMLLEKVRLTPAITTNSATILKLFAKSNLGFTLLTPISIAAELAAGELVAIPVENRLLQSPEAHLVTRAGRQLSPAANRLLQRLTAQINQYAQYGSAS”, which “soluble on expression in E. coli” value is on record?
**A.** not soluble

**Q.** Which “soluble on expression in E. coli” value does the source give for “MGSDKIHHHHHHMASSENTKNGNGGTLGFEAELFKAADKLRGNMEPSDYKHVALGLIFLKYISDAFEARHKALLAEDVRAAEDKDEYLADNVFWVPKEARWSHLQANAKLPAIGTLIDDAMRAIEKDNESLKGVLPKDYARPALNKVMLGELIDLISGIALNEEGDRSKDILGRVYEYFLGQFAGAEGKRGGEFYTPRSVVRVLVEMLEPYSGRVYDPCCGSGGMFVQSEKFVHEHGGRIGDIAIYGQESNYTTWRLAKMNLAVRGIDSDIRWNNEGSFHKDELRDLKADYVLANPPFNISDWGGDRLREDVRWKFGAPPVGNANYAWLQHIFHHLAPNGTAGVVLANGSMSSNQSGEGEIRRAMIEADAVDCMVALPGQLFYSTQIPACLWFLARNKNPGGGLRDRRGQVLFIDARKLGVLIDRTRRELNDDDIKRIADSYHAWRGEKEAGEYADVLGFCKSASLDEIRKHGHVLTPGRYVGAEAQADDGEPFDEVMRRLSAQWRAQQLEGQRVDDAIERNLRELGYGQ” here?
**A.** not soluble
